Data from patent US20100055125A1.

Biological target: clotting factor VIII (human) (UniProt P00451)
Assay: cell-based or functional assay

UniProt P00451, sequence (P00451 20-2351): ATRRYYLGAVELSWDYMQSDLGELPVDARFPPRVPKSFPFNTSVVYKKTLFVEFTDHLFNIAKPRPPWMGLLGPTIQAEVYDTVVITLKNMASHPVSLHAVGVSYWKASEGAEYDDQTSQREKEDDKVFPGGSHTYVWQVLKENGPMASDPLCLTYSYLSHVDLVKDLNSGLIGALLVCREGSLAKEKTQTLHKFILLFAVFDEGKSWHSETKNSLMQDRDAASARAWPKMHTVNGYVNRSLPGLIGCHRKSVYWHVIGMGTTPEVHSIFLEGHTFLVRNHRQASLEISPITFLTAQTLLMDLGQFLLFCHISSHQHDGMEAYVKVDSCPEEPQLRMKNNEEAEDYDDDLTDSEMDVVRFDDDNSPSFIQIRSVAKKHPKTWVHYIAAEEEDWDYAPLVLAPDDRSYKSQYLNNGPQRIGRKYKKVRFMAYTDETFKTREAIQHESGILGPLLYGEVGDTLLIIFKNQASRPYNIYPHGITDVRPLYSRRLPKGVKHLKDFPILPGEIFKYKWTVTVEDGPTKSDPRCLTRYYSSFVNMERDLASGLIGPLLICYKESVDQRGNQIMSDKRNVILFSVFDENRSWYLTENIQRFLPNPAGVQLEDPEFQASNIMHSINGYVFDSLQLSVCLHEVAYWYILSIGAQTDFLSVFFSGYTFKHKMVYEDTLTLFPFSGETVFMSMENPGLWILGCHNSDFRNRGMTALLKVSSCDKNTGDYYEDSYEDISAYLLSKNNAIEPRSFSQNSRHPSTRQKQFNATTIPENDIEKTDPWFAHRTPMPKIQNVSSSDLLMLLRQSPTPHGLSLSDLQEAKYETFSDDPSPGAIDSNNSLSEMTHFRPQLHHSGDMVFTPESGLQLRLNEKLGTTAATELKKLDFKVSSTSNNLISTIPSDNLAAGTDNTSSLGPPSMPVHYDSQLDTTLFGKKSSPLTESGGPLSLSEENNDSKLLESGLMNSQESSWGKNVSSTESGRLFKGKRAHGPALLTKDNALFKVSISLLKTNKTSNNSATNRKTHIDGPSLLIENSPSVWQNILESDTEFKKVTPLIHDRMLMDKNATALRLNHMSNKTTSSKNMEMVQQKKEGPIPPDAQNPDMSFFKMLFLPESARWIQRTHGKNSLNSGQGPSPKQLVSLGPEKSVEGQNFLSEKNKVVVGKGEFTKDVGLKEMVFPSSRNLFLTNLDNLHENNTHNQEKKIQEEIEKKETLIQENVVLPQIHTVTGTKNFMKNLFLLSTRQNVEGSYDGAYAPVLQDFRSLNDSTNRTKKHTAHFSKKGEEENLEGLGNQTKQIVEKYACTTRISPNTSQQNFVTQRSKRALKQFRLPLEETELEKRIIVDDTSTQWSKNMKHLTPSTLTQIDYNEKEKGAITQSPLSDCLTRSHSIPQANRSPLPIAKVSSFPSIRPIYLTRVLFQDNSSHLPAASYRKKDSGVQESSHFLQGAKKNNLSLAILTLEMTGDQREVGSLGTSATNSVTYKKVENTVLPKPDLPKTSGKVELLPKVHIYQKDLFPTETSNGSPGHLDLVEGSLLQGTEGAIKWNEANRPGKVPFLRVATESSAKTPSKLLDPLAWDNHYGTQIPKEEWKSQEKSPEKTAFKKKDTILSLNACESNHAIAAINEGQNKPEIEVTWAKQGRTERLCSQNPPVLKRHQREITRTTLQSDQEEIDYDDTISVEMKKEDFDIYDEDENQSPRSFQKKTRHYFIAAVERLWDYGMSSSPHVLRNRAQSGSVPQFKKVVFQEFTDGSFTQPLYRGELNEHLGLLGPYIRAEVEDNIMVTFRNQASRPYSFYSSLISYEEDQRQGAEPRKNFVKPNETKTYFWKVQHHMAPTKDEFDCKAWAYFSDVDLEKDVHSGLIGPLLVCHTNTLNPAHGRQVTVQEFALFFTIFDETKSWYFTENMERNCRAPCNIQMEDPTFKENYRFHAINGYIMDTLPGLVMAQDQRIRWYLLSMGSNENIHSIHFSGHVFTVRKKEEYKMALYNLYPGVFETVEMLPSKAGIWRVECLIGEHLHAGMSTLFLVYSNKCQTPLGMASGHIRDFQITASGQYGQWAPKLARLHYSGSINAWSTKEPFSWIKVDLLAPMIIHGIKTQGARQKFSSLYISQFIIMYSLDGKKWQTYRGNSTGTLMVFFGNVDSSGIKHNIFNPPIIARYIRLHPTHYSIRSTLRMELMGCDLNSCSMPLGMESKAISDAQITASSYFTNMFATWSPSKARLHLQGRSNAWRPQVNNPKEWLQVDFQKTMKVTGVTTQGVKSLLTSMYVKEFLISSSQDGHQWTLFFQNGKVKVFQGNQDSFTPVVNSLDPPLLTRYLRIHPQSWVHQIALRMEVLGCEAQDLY

In the case of “murine monoclonal anti-FVIII antibody ESH8 (American Diagnostica)”, the FVIII activity of normal plasma after adding ESH8 (% of its initial activity) is reported as 32.6 and the FVIII activity of normal plasma after adding ESH8 (% of the initial activity) is reported as 23.5.
